Here are results for two molecules from PMC4176178, “An evolutionarily conserved interaction of tumor suppressor protein Pdcd4 with the poly(A)-binding protein contributes to translation suppression by Pdcd4” (Nucleic Acids Research, 2014).

T1: GST-Pdcd4 (full-length human Pdcd4 fused to GST) (human, UniProt Q53EL6 1-469)
T1 construct: programmed cell death 4 (Pdcd4), human, full length; also called GST-Pdcd4-wt; pGex-6P2-hPdcd4wt; source: purified
T1 sequence (looked up): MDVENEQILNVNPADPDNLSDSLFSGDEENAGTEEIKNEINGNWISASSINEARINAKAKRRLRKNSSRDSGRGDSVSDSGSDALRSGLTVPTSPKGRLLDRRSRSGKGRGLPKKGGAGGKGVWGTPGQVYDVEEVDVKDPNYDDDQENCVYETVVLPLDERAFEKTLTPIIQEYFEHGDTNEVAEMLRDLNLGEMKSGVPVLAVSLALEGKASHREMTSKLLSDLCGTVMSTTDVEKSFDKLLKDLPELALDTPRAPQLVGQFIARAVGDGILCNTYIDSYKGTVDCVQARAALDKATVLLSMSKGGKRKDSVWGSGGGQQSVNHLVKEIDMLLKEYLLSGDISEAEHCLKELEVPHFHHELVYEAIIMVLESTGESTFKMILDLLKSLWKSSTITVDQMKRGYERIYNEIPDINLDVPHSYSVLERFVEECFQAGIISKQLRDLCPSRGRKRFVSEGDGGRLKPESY

B1: mouse His-PABP-RRM1–4 (amino acids 1–375) (domain or fragment, UniProt P29341 1-375, looked up)
chain: MNPSAPSYPMASLYVGDLHPDVTEAMLYEKFSPAGPILSIRVCRDMITRRSLGYAYVNFQQPADAERALDTMNFDVIKGKPVRIMWSQRDPSLRKSGVGNIFIKNLDKSIDNKALYDTFSAFGNILSCKVVCDENGSKGYGFVHFETQEAAERAIEKMNGMLLNDRKVFVGRFKSRKEREAELGARAKEFTNVYIKNFGEDMDDERLKELFGKFGPALSVKVMTDESGKSKGFGFVSFERHEDAQKAVDEMNGKELNGKQIYVGRAQKKVERQTELKRKFEQMKQDRITRYQGVNLYVKNLDDGIDDERLRKEFSPFGTITSAKVMMEGGRSKGFGFVCFSSPEEATKAVTEMNGRIVATKPLYVALAQRKEERQ
notes: Vector was a gift from Lorna Waters; source: bacterially expressed, purified (Ni-NTA)
B2: GST-Pdcd4-RBDstop (only the N-terminal RNA-binding domain of human Pdcd4) (domain or fragment, UniProt Q53EL6 1-154, looked up)
chain: MDVENEQILNVNPADPDNLSDSLFSGDEENAGTEEIKNEINGNWISASSINEARINAKAKRRLRKNSSRDSGRGDSVSDSGSDALRSGLTVPTSPKGRLLDRRSRSGKGRGLPKKGGAGGKGVWGTPGQVYDVEEVDVKDPNYDDDQENCVYET
notes: translation stop codon introduced at amino acid position 155; The last residue 154 follows from the stop codon at position 155; also called pGex-6P2-hPdcd4-RBDstop; source: purified

Assay [1] addresses T1, GST-Pdcd4 (full-length human Pdcd4 …). The assay can be described thus: pull-down; GST fusion protein-loaded sepharose beads incubated with purified, bacterially expressed His-PABP-RRM1–4; western blotting with PABP antibodies or Coomassie staining; also in the absence or presence of 0.5 μg/ml RNase A. Conditions: both partners purified. A general note: Immunoblotting shows a protein as a band on a membrane.

Assay [2] has as its target B1. The description is as above. Conditions: both partners purified.

Turning to B1, the binding result in assay [1] was “binds”.
B2: the binding result in assay [2] is given as “binds”.
